The values that follow come from paper PMC3060787.

A word on the Kd: it is a measure of binding affinity in units of concentration. A low value points to higher affinity.

Common to all, as to assay: smFRET
Data set [1] has as its target T1, Taq MutS(C42A,T469C)-Cy3 (Thermus aquaticus, UniProt Q56215 1-811, C42A;T469C).
T1 sequence: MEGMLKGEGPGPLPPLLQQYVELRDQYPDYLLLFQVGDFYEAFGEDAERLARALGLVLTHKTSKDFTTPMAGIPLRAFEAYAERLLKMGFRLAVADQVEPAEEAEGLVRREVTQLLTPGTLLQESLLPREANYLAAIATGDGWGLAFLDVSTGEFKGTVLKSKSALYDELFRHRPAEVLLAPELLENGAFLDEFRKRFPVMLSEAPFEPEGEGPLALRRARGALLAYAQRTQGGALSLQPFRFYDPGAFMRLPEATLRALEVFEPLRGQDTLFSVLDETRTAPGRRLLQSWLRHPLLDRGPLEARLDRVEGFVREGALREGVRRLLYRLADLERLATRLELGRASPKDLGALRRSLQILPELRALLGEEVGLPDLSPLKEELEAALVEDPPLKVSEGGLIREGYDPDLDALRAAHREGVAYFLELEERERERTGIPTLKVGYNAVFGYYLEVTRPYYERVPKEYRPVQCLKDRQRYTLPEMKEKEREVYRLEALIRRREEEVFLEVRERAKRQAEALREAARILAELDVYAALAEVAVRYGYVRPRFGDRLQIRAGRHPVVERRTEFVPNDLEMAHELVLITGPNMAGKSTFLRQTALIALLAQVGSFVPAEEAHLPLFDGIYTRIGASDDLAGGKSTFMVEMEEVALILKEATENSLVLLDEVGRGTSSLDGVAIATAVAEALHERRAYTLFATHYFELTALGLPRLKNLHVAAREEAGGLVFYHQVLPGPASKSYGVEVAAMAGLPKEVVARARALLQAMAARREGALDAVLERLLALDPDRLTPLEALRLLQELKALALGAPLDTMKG

Data set [2] has as its target T1, Taq MutS(C42A,T469C)-Cy3. This is another data set of the same source.
Data set [3] addresses T1, Taq MutS(C42A,T469C)-Cy3. This is another data set of the same source.
In data set [4] the target is T1, Taq MutS(C42A,T469C)-Cy3. This is another data set of the same source.

Like-named read-outs stand apart in the source and are kept apart here.

B1: 74 bp duplex, both ends blocked (dsDNA)
DNA 1: ATTCAGCTGTACCCAATTCACTCTACGACGAGGCGTCGCTAGCGTCGCATCCTGCTGTAAGTTTCATGTCCACC
DNA 2: GGTGGACATGAAACTTACAGCAGGATGCGACGCTAGCGACGCCTCGTCGTAGAGTGAATTGGGTACAGCTGAAT
modifications: amino-C6 dT (Cy5 site)
B1: in data set [1], the affinity, expressed as Kd, was 128 ± 12 nM.

B2: +dT mismatch DNA (74/75 nt), both ends blocked (dsDNA)
DNA 1: B1 DNA 1
DNA 2: GGTGGACATGAAACTTACAGCAGGATGCGACGCTAGCGTACGCCTCGTCGTAGAGTGAATTGGGTACAGCTGAAT
modifications: amino-C6 dT (Cy5 site, nt 45 from 5' biotin)
In turn, B2 displayed a Kd in data set [2] of 16.2 ± 2.1 nM.

B3: +dT mismatch DNA with dT10 ssDNA tail (74/85 nt) (dsDNA)
DNA 1: B1 DNA 1
DNA 2: TTTTTTTTTTGGTGGACATGAAACTTACAGCAGGATGCGACGCTAGCGTACGCCTCGTCGTAGAGTGAATTGGGTACAGCTGAAT
modifications: amino-C6 dT (Cy5 site)
On to B3, for which the binding result in data set [3] is given as “binds”.

B4: 100 bp duplex (dsDNA)
DNA 1: GTTACCGATACGATACGAATAGGCATATCTGCACGTTTCTCACGAGGCGCCGCTAGACTGATCTGGAGCTTAATTGCCTGCCGGAGCTAAAGACGTTCCA
DNA 2: TGGAACGTCTTTAGCTCCGGCAGGCAATTAAGCTCCAGATCAGTCTAGCGGCGCCTCGTGAGAAACGTGCAGATATGCCTATTCGTATCGTATCGGTAAC
modifications: amino-C6 dT (Cy5 site)
For B4, the binding result in data set [4] is “binds”.

B5: 100 bp +dT mismatch DNA (100/101 nt) (dsDNA)
DNA 1: B4 DNA 1
DNA 2: TGGAACGTCTTTAGCTCCGGCAGGCAATTAAGCTCCAGATCAGTCTAGCGTGCGCCTCGTGAGAAACGTGCAGATATGCCTATTCGTATCGTATCGGTAAC
modifications: amino-C6 dT (Cy5 site)
For B5, the binding result in data set [4] is “binds”.
